Results reported in patent US20260055153A1 (published 2026).

Biological target: R1-E5
Assay: BLI

- Kd: 43 nM
B1: IL-15Rβ (receptor)
chain: AVNGTSQFTCFYNSRANISCVWSQDGALQDTSCQVHAWPDRRRWNQTCELLPVSQASWACNLILGAPDSQKLTTVDIVTLRVLCREGVRWRVMAIQDFKPFENLRLMAPISLQVVHVETHRCNISWEISQASHYFERHLEFEARTLSPGHTWEEAPLLTLKQKQEWICLETLTPDTQYEFQVRVKPLQGEFTTWSPWSQPLAFRTKPAALGKD
